Key:
HPAFII cells = experiment: In vitro cytotoxicity assay (CellTiter-Glo), HPAFII; format: cell-based
Procedure: (§1) In vitro cytotoxicity assay: The cytotoxic effect of an EC4-based ADC was measured by a cell proliferation assay employing the protocol in the Promega Corp. Technical Bulletin TB288; and Mendoza et a1., 2002, Cancer Res. 62:5485-5488), the methods of which are specifically incorporated by reference herein. Briefly, an aliquot of 40 μl of cell culture containing about 400 cells in medium was deposited in each well of a 384-well, opaque-walled plate. A 10 μL aliquot of free cytotoxic agent or ADC was added to the experimental wells and incubated for 96 hr and then incubated at room temperature for approximately 30 mins whereupon a volume of CellTiter-Glo™ reagent equal to the volume of cell culture medium present in each well was added. The contents were mixed for 2 mins on an orbital shaker to induce cell lysis and the plate was incubated at room temperature for 10 mins to stabilize the luminescence signal for recordation.
Anti-ITGB6 ADCs were tested for potency. The antibodies were engineered with the cysteine pairs disclosed above in the previous Examples. The efficacy of anti-ITGB6 EC4 ADCs were also tested against conventional anti-ITGB6 ADCs. The cells were treated with conventional or EC4 ADCs, then the remaining cells were counted to assess the cytotoxic effects of each EC4 variant compared to conventional ADCs. […]

BxPC-3 cells = experiment: In vitro cytotoxicity assay (CellTiter-Glo), BxPC-3; format: cell-based
Procedure: as §1
Anti-ITGB6 ADCs were tested for potency. The antibodies were engineered with the cysteine pairs disclosed above in the previous Examples. The efficacy of anti-ITGB6 EC4 ADCs were also tested against conventional anti-ITGB6 ADCs. The cells were treated with conventional or EC4 ADCs, then the remaining cells were counted to assess the cytotoxic effects of each EC4 variant compared to conventional ADCs. […] Cytotoxicity in BxPC-3 cells increased when the cells were treated with greater than 50 ng/mL of the positive control, conventional anti-ITGB6 ADCs (h2A2-mc-vc-MMAE). […] Both h2A2-mc-vc-MMAE and h2A2 S400C S114C-mc-vc-MMAE were cytotoxic to HPAFII cells when greater than 10 ng/mL ADC were used on the cells.

B1: h2A2-mc-vc-MMAE(4): conventional anti-ITGB6 ADC, h2A2 without engineered cysteines conjugated with mc-vc-MMAE; positive control (conjugate)
VH: QFQLVQSGAEVKKPGASVKVSCKASGYSFTDYNVNWVRQAPGQGLEWIGVINPKYGTTRYNQKFKGRATLTVDKSTSTAYMELSSLRSEDTAVYYCTRGLNAWDYWGQGTLVTVSS
VL: DIQMTQSPSSLSASVGDRVTITCGASENIYGALNWYQQKPGKAPKLLIYGATNLEDGVPSRFSGSGSGRDYTFTISSLQPEDIATYYCQNVLTTPYTFGQGTKLEIK
% viability at top concentration (HPAFII cells): 35%
x50 (HPAFII cells; 96 hr): 199 ng/mL
% viability at top concentration (BxPC-3 cells; BXPC3): 36%
x50 (BxPC-3 cells; BXPC3, 96 hr): 251 ng/mL
ADC concentration above which cytotoxicity increased (BxPC-3 cells; BxPC-3 cells): greater than 50 ng/mL

Reference: patent US20260209383A1, “SITE-[…] […] ANTIBODY DRUG CONJUGATES” (SEAGEN INC., priority 2022, published 2026)
